US20210147504A1

Molecular target: rat ANP receptor (NPR-A) (rat) (UniProt P18910)
Assay: cell-based or functional assay

rat ANP receptor (NPR-A) (rat), sequence (P18910 29-1057): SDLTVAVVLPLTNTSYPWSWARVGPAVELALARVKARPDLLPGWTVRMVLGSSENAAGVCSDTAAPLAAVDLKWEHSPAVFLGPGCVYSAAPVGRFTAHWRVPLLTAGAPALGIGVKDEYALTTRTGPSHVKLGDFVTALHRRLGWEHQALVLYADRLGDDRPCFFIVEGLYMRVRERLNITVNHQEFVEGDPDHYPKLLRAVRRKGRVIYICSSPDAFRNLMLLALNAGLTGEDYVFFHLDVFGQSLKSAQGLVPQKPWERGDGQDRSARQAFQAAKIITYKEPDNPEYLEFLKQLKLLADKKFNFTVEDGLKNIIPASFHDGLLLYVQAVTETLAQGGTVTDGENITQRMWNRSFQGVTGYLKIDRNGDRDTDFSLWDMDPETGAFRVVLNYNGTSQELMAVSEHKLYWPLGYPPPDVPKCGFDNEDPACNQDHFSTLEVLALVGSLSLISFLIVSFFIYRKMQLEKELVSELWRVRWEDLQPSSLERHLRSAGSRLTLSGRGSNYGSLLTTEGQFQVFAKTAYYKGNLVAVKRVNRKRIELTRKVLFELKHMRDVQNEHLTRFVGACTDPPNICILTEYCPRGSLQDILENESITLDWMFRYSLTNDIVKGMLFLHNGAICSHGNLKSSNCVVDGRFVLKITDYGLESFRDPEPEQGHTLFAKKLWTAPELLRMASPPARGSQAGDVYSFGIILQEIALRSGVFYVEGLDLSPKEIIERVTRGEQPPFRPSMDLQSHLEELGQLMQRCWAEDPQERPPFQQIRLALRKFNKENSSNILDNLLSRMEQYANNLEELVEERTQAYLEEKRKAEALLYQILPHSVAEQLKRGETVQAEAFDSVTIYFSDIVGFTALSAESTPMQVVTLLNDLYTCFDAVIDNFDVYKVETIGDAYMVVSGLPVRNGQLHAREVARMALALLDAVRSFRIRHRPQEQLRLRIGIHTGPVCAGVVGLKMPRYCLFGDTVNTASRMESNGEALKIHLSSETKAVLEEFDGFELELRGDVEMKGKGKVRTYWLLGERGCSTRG

BNP (Bachem, H-5968) (peptide)
EC50, fluorescence signal of rat NPR-A cGMP reporter CHO cell line (GCaMP6/CNGA2): 2.9 nM
